Values quoted from earlier work as cited in publication PMC7529620.

Target: NCAM/GFRα1 (Homo sapiens) (UniProt P13591)
Chain of UniProt P13591 (P13591 20-718, chain 1 of 2): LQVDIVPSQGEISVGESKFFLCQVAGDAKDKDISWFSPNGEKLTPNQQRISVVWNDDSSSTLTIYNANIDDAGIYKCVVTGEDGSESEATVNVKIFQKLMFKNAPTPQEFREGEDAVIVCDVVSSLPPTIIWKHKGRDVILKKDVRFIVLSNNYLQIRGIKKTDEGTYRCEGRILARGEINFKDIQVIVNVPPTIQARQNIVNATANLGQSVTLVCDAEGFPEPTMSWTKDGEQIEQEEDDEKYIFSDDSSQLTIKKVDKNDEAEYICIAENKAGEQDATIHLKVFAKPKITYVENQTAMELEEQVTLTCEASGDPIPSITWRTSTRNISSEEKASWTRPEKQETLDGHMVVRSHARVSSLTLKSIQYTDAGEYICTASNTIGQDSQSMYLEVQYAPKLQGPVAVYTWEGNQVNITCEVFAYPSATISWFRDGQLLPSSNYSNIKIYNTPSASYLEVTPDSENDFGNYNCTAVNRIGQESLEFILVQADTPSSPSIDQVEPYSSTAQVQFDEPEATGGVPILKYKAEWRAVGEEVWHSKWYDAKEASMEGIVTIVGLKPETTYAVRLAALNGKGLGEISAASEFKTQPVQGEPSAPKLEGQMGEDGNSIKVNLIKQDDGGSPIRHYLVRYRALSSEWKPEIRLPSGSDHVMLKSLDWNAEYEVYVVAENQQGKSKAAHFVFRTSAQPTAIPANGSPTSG
Chain of UniProt P13591 (P56159 25-429, chain 2 of 2, further chain): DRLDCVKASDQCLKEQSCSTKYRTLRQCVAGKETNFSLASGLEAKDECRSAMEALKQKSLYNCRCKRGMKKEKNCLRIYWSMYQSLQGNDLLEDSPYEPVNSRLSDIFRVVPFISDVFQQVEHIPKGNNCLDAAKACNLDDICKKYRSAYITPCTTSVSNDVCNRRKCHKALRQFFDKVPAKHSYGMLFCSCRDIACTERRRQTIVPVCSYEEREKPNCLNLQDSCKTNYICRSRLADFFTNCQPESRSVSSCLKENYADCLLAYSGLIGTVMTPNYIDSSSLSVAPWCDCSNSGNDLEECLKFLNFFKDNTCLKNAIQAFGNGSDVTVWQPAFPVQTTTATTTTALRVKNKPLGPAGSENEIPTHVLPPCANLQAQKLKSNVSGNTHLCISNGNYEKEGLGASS

Substance: GDNF (from UniProt P39905)
- Kd: 1 nM
